Substitutions are numbered along the chain they refer to. In names and notes the source's numbering stands. A value given as a limit tells only on which side of the number the result lay.

First the molecules themselves.
B1: Fab 098 (Fab, V domains shown)
VH: EVQLVQSGAEVKKPGASVKVSCKASGYTFTSYYLYWVRQAPGQGLEWIGGVNPSNGGTNFNEKFKSRVTLTVDTSISTAYMELSRLRSDDTAVYYCTRRLSHYDGGFDYWGQGTTVTVSS
VL: DIVMTQTPLSLSVTPGQPASISCRASKSVSTSGFSYLHWYLQKPGQPPQLLIFLGKFRESGVPDRFSGSGSGTDFTLKISRVEAEDVGVYYCQHSWELPLTFGQGTKLEIKR
notes: also called Fab98
B2: Fab 133 (Fab, V domains shown)
VH: B1 VH with S31Q, L34Y, A92S, L100D, H102N
VL: B1 VL with K56F, F57Y, E59T, Q93S, H94Q, S95M, W96A, E97D
B3: Fab 104 (Fab, V domains shown)
VH: B1 VH
VL: B1 VL with K56T, F57H, R58S, E59V
B4: Fab 102 (Fab, V domains shown)
VH: B1 VH
VL: B1 VL with K56H, R58A, E59S
B5: Fab 099 (Fab, V domains shown)
VH: B1 VH
VL: B1 VL with K56T, F57H, E59A
B6: Fab 103 (Fab, V domains shown)
VH: B1 VH
VL: B1 VL with K56R, F57Y, R58L, E59Q
B7: Fab 138 (Fab, V domains shown)
VH: B1 VH with S31Q, L34T, V51I, N52E, S54N, N55R, L100D, H102N
VL: B1 VL with G55A, K56S, F57N, R58L, Q93A, H94Q, S95T, W96F
B8: Fab 139 (Fab, V domains shown)
VH: B1 VH with S31Q, L34Y, A92S, L100D, H102N
VL: B1 VL with G55S, E59R
B9: Fab 128 (Fab, V domains shown)
VH: B1 VH with S31Q, L34Y, A92S, L100D, H102N
VL: B1 VL with K56R, F57H, E59A
B10: Fab 100 (Fab, V domains shown)
VH: B1 VH
VL: B1 VL with G55S, F57Y, E59S, Q93S, H94Q, S95A, W96Y, E97H
B11: Fab 101 (Fab, V domains shown)
VH: B1 VH
VL: B1 VL with F57Y, R58G, E59A, Q93A, H94Q, S95A, W96T, E97Q
B12: Humanized 08A IgG4 Fab 100 S61N G56A (antibody, V domains shown)
VH: B1 VH with G56A
VL: B1 VL with G55S, F57Y, E59S, Q93S, H94Q, S95A, W96Y, E97H
notes: also called 25AVE
B13: Humanized 08A IgG4 S61N (lot 98AIO) (antibody)
heavy: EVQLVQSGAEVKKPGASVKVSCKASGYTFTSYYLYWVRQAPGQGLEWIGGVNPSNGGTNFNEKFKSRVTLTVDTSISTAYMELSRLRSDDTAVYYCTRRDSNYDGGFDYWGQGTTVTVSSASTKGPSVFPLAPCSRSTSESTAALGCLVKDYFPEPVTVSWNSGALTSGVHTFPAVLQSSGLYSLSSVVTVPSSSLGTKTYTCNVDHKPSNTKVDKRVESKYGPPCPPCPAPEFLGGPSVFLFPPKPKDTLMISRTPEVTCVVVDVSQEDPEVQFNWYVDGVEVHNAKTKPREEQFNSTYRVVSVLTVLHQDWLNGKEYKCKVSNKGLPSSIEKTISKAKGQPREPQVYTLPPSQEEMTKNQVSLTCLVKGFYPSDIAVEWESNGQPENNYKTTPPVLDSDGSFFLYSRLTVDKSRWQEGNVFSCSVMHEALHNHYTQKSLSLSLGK
light: DIVMTQTPLSLSVTPGQPASISCRASKSVSTSGFSYLHWYLQKPGQPPQLLIFLASNLESGVPDRFSGSGSGTDFTLKISRVEAEDVGVYYCQHSWELPLTFGQGTKLEIKRTVAAPSVFIFPPSDEQLKSGTASVVCLLNNFYPREAKVQWKVDNALQSGNSQESVTEQDSKDSTYSLSSTLTLSKADYEKHKVYACEVTHQGLSSPVTKSFNRGEC
notes: IgG4 S228P / kappa; also called Humanized x [PD-1_H] mAb (08A/HuPD1A-11 S61N S228P corrected) IgG4 / Kappa
B14: Humanized 08A IgG4 G56A (antibody, V domains shown)
VH: B1 VH with G56A, N61S, L100D, H102N
VL: B1 VL with G55A, K56S, F57N, R58L
notes: IgG4 S228P / kappa; also called 89AVZ; Humanized x [PD-1_H] mAb (08A/HuPD1A-11 G56A) IgG4 S228P / Kappa
B15: Humanized 08A IgG4 S61N G56A (antibody, V domains shown)
VH: B1 VH with G56A, L100D, H102N
VL: B1 VL with G55A, K56S, F57N, R58L
notes: IgG4 S228P / kappa; also called 51AQK; Humanized x [PD-1_H] mAb (08A/HuPD1A-11 S61N VH G56A / VL) IgG4 S228P / Kappa
B16: Humanized 08A IgG4 Fab 098 G56A (antibody, V domains shown)
VH: B1 VH with G56A, N61S
VL: B1 VL with G55A, K56S, F57N, R58L
notes: IgG4 S228P / kappa; also called 90AVZ

In the first assay the target is T1, recombinant human or cyno PD-1 (immobilized onto CM5 chip, Example 1) (human or cyno ( which was …, UniProt Q15116 25-167, limits assumed)).
T1 construct: also called antigen
T1 sequence (Q15116 25-167 limits assumed): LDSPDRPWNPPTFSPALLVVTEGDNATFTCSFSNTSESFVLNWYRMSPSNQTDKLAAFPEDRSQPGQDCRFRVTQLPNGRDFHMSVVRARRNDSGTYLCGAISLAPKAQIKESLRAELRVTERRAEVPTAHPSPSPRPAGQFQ
The experiment in a line: SPR (Biacore T200), PD-1 immobilized on CM5 chip, Fab as analyte. The procedure: Immobilization of recombinant human or cyno PD-1 onto CM5 chip: A CM5 sensor chip was activated in FC2 by 7-min. injection (10 μl/min.) of freshly prepared 1:1 50 mM NHS: 200 mM EDC. PD-1 at a concentration of 0.2 μg/ml in 10 mM sodium acetate buffer pH 5.0 was injected onto the activated chip at 5 μl/min. (HBS-EP running buffer: 10 mM HEPES, 150 mM NaCl, 3.4 mM EDTA, 0.005% surfactant P20, pH 7.4) for 120 seconds. The remaining active coupling sites were blocked with 7 min. injection of 1M ethanolamine at 10 μl/min.
Binding kinetics measurement: Various concentrations of the Fabs were injected with a flow rate of 30 μl/min for 180 seconds(s) during the association phase. The dissociation of bound antibody was monitored by flowing HBS-EP buffer over the chip surface for 600 seconds. At the end of each cycle, the sensor surfaces were regenerated by injecting regeneration buffer (10 mM glycine buffer with pH 1.7) for 180 seconds. After sensograms were corrected for signals from a reference flow, kinetics were calculated with BIACORE T 200 evaluation software ver.1.0 (Biacore, GE, USA).
(In general: Surface plasmon resonance follows binding to a sensor surface in real time, without labels.)
As to B1, the Kd was 0.031 nM.
In the case of B2, the Kd amounted to 0.031 nM.
For the molecule B3, the Kd was found to be 0.052 nM.
The same measure, in the same setting: next, B4: 0.042 nM; B5: 0.034 nM.
Still for that read-out and setting: to B6 belongs 0.028 nM; to B7, 0.066 nM.
B8: the Kd stood at 0.014 nM.
In the case of B9, the dissociation constant (Kd) came to 0.015 nM.
On the same count and under the same terms, to B10 belongs 0.024 nM; to B11, 0.029 nM.

In a further assay the target is T2, polyhistidine-tagged human PD-1 (hPD1-His, 98AFK) (human, UniProt Q15116 25-167, limits assumed).
T2 construct: also called human PD1-His; Human PD-1-His
T2 sequence (Q15116 25-167 limits assumed): as above
The experiment in a line: SPR (Biacore T200), mAb captured on anti-Fc chip; reference Mouse 08A. The procedure:
(§1) A surface plasmon resonance (SPR)-based assay utilizing capture mode was used to determine the binding kinetics and affinities of anti-PD-1 antibodies against polyhistidine-tagged human PD-1 (hPD1-His, 98AFK). Following manufacture instructions, a series S sensor chip CM5 (GE Healthcare, BR100530) was activated using an amine-coupling kit (GE Healthcare, BR100050). Either human capture kit (anti-human Fc, 25 μg/mL, GE Healthcare, BR100839) or mouse capture kit (anti-mouse Fc, 30 μg/mL, GE Healthcare, BR100838) antibody diluted in the supplied pH 5.0, 10 mM sodium acetate buffer was immobilized onto the activated surface for 7 minutes. After immobilization, surfaces were deactivated with 1M ethanolamine/HCl (pH 8.5) for 7 minutes.
(§2) Binding kinetics were measured on a biacore T200 in HBS-EP+ (0.01 M HEPES pH 7.4, 0.15 M NaCl, 3 mM EDTA, 0.05% v/v Surfactant P20) running buffer at 25° C. Antibodies were captured either on mouse or human Fc capture surfaces at 10 μL/min flow rate. Antibodies were captured on flow cells 2, 3 and 4. Flow cell 1 was used as a reference with no antibody captured. A 6-point, 2-fold serial dilutions of the analyte 98AFK (hPD1-His), starting at 20 nM, were prepared in the running buffer (HBS-EP+). Two buffer blanks were included for double referencing. Titration series were injected for 3 minutes at 50 μl/min followed by 600 seconds of dissociation. After each cycle, surfaces were regenerated with a 30 second injection of 3M MgCl₂ at […] on the anti-human Fc chip or 180 seconds of 10 mM Glycine pH 1.7 at 10 μl/min on the anti-mouse Fc chip.
(§3) Sensorgram processing and data analysis were performed with Biacore T200 Evaluation Software Version 2.0.4 (GE Healthcare). […] Processed curves were globally fitted to a 1:1 binding model to determine the association rate constant, kₒₙ (M⁻¹s⁻¹, where “M” equals molar and “s” equals seconds) and the dissociation rate constant, koff (s⁻¹). These rate constants were used to calculate the equilibrium dissociation constant, KD (M)=koff/kₒₙ.
Consider B12, for which the “KD (REF)/KD” value was determined as 5.7.
On the same count and under the same terms, to B13 belongs 4.4; to B14, 2.4.
Still for that read-out and setting: next, B15: 4.2; B16: 3.

The next assay has as its target T2, polyhistidine-tagged human PD-1 …. The experiment in a line: SPR solution affinity (Biacore T200, competition mode, equilibrium titration). The procedure: (§4) The titration series were incubated for 16-24 hours to reach equilibrium at room temperature. The unbound sites were measured using a BIAcore chip immobilized with antigen in a competition mode where SPR signal detected corresponded to unbound antibody.
(§5) The titration series following >16 hr. incubation were injected over the sensor chip immobilized with hPD1-His (above). Free, unbound antibodies concentrations were measured as proportional to RU after 120 seconds (for 500 pM mAb series) or 400 seconds (for 100 pM mAb series) of injection at 10 μL/min. After each cycle, surfaces were regenerated with a 30 second injection of 1:1 mixture of 3M MgCl₂ and pH 2.0 10 mM glycine at 30 μL/min.
In turn, B12 returned a Kd of less than 0.0025 nM.
On the same count and under the same terms, to B13 belongs 0.033 nM; to B14, 0.056 nM; to B15, 0.033 nM.
The same measure, in the same setting: next, B16: 0.019 nM.

The target is the same in a further assay. The experiment in a line: SPR solution affinity; reference Humanized 08A IgG4 S61N (98AIO). The procedure: as §4, §5
Take B12: the “KD (REF)/KD” value was more than 13.
For the molecule B13, the “KD (REF)/KD” value was 1.
The same measure, in the same setting: to B14 belongs 0.6; to B15, 1; to B16, 1.7.

A further assay has the same target. The experiment in a line: SPR (Biacore T200), mAb captured on anti-Fc chip, hPD1-His as analyte. The procedure:
as §1, §2, §3
Regarding B12, the affinity, expressed as Kd, was 0.042 nM.
Consider B13, for which binding was put at a Kd of 0.054 nM.
Same read-out and setting: next, B14: 0.1 nM; B15: 0.057 nM.
B16: binding was put at a Kd of 0.079 nM.

One may read the Kd as the concentration at which binding is half-saturated.

Values taken from US20220251194A1 (Merck Sharp & Dohme, published 2022).
